The assay addresses amyloid-b1-42 peptide (UniProt P05067). The assay is described as follows: cell-based or functional assay.

Among the data in patent US20120301433A1, “BACTERIOPHAGES EXPRESSING AMYLOID PEPTIDES AND USES THEREOF” (priority 2009, published 2012) are Aβ:peptide molar ratio and phage concentration that doubles the lag time of Aβ fiber formation values, retold here.

Chain of amyloid-b1-42 peptide (P05067 672-713 limits assumed): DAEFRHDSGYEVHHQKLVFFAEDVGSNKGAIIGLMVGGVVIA
Chain of T7-RRR-CsgB133-142-PPP (P19727 1-348, tags or fused parts left off): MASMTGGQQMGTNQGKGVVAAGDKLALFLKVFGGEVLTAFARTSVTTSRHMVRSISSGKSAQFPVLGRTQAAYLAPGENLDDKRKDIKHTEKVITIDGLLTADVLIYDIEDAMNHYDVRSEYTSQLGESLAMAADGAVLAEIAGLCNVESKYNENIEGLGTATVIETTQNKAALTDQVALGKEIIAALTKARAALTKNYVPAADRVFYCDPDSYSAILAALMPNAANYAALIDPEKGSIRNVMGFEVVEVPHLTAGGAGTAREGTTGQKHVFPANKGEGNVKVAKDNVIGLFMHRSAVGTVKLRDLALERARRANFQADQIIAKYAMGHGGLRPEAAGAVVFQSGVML

On to “T7-RRR-CsgB133-142-PPP (from UniProt P19727 1-348)”, for which the Aβ:peptide molar ratio at the doubling of the lag time was 70000 and the phage concentration that doubles the lag time of Aβ fiber formation was 5e+07 PFU/mL.
